# Data as given in paper PMC3046063 (Molecular Biology of the Cell, 2011).
# B1: His-GIV-CTs (aa 1660–1870) (domain or fragment, UniProt Q3V6T2-3 1660-1870, looked up)
# chain: SETLESRHHKIKTGSPGSEVVTLQQFLEESNKLTSVQIKSSSQENLLDEVMKSLSVSSDFLGKDKPVSCGLARSVSGKTPGDFYDRRTTKPEFLRPGPRKTEDTYFISSAGKPTPGTQGKIKLVKESSLSRQSKDSNPYATLPRASSVISTAEGTTRRTSIHDFLTKDSRLPISVDSPPAAADSNTTAASNVDKVQESRNSKSRSREQQSS
# How the values were obtained:
# [1] = target: T1, His-Gαi3 (UniProt P08753 1-354); experiment: cell-based or functional assay
# [2] = target: T1, His-Gαi3; experiment: SEC
# [3] = target: T1, His-Gαi3
# T1 sequence (P08753 whole entry): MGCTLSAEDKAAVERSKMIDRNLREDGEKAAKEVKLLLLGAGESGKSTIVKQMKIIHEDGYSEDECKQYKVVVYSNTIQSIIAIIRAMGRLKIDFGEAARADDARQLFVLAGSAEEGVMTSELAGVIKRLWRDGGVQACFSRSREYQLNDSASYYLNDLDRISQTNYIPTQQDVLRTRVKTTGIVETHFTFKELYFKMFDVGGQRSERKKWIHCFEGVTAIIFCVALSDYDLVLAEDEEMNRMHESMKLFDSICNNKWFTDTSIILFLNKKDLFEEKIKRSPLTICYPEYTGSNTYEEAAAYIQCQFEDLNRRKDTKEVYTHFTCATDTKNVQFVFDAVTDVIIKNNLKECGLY
binder,measurement,setting,value
B1,steady-state GTPase activity of His-Gαi3 (50 nM) alone with 0-2 μM His-GIV-CTs,[1],~3 fold
same,stoichiometry N,[2],1 His-Gαi3:His-GIV-CTs
same,Kd,[3],~300 nM
